Laboratory results: CN116813758A (INST MICROBIOLOGY CAS, dated 2023)

Target: SARS-CoV-2原始毒株的RBD蛋白 (SARS-CoV-2 RBD-his) (SARS-CoV-2原始毒株, UniProt P0DTC2 319-541)

B1: 单链纳米抗体S43 (S43-his蛋白) (VHH)
VHH: QVQLQESGGGLVQPGGSLRLTCAPSGFTLDYYAIGWFRQAPGKEREGVSCISSNNSTYYADSVKGRFTISRDNAKNTVYLQMNSLKPEDTAVYYCAAEPDYSGVYYYTCGWTDFGSWGQGTQVTVSS
- Kd: 0.12 nM
